This note sets out measurements from US20240101687A1 (ABL BIO, published 2024).

Experiment [1] addresses T1, human alpha-synuclein aggregates (fibrils) (human, UniProt P37840 1-140). As to the kind of experiment: BIAcore as in Example 4-3, α-syn aggregates. Background: In SPR one partner is held on a chip, and binding of the other changes the refractive index at the surface.
Procedure: (§1) The running buffer, analyte dilution, and the sample dilution buffer were HBS-EP. […] For the capture, the monomer was for RU of 800 (theoretical), and a fibril was for RU of 100 (theoretical). The capture phase was performed at contact time of 60 seconds, a flow rate of 30 μl/min, and a stabilization period of 180 seconds. The association phase was performed at the association time of 120 seconds and the flow rate was 30 μl/min. The dissociation phase was performed at the dissociation time of 360 seconds and the flow rate of 30 l/min. The regeneration phase was performed twice time at the regeneration time of 240 seconds (primary) and 60 seconds (secondary) and a flow rate of 30 μl/min. The fitting was carried out suing 1:1 binding model, and the evaluation software was BIACore T200 Evaluation software (GE healthcare).
Experiment [2] has as its target T1, human alpha-synuclein aggregates …. As to the kind of experiment: ELISA, alpha-synuclein aggregates coated, antibody titrated up to 400 nM; C of the 4-P fit. For orientation: In an ELISA, binding on a coated surface is turned into a signal by an enzyme label.
Procedure: (§2) The alpha-synuclein aggregates were coated on a 96-well plate at a concentration of 1 ug/ml for 18 hours, and after washing, was treated with each antibody by diluting by 5 times from 400 nM. The bound antibodies were bound to anti-human Fc-HRP and then performed by color development with TMB solution, to measure the degree of binding of the antibody.
Experiment [3] addresses T2, human IGF1R extracellular domain, His-tagged (human, UniProt P08069 31-932).
T2 construct: Bought (R&D Systems 391-GR or Sino Biological 10164-H08H); also called recombinant IGF1R; ECD of IGF1R
The experiment is described as follows: ELISA on coated IGF1R, antibody titrated up to 400 nM; C of the 4-P fit, D 2.68; curve at baseline up to about 3 nM, about 0.8 at 80 nM and 1.75 at 400 nM, no plateau in the data; the text says the single antibody did not bind.

In the next experiment the target is T3, Tau protein aggregates (UniProt P10636-8 1-441, limits assumed).
T3 construct: aggregates prepared by Prof; Seung-jae Lee; also called tau-derived aggregates
T3 sequence (P10636 other isoform, or with tags, fused parts or gaps limits assumed): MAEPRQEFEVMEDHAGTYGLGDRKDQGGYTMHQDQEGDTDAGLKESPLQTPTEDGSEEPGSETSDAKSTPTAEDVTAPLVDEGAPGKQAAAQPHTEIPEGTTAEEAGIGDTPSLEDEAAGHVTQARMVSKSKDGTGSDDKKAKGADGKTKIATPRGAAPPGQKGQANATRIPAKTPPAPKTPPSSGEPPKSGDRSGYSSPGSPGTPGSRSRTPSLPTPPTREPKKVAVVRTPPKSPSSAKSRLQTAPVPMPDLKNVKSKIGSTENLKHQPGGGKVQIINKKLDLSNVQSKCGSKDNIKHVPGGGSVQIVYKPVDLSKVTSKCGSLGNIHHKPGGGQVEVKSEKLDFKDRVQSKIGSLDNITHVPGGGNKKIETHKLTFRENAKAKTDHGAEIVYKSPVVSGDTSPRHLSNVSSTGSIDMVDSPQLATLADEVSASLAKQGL
The experiment is described as follows: dot blot.

Experiment [4] addresses T1, human alpha-synuclein aggregates …. As to the kind of experiment: SPR (BIAcore), antibody captured on Protein A chip, alpha-Syn fibril as analyte, 1:1 binding fit, 25 C.
The target of experiment [5] is T4, mouse IGF1R on bEND.3 brain endothelial cells (mouse, UniProt Q60751 31-1373).
T4 construct: whole, on cells; also called IGF1R expressed on the surface of brain endothelial cells
T4 sequence (Q60751 31-1373): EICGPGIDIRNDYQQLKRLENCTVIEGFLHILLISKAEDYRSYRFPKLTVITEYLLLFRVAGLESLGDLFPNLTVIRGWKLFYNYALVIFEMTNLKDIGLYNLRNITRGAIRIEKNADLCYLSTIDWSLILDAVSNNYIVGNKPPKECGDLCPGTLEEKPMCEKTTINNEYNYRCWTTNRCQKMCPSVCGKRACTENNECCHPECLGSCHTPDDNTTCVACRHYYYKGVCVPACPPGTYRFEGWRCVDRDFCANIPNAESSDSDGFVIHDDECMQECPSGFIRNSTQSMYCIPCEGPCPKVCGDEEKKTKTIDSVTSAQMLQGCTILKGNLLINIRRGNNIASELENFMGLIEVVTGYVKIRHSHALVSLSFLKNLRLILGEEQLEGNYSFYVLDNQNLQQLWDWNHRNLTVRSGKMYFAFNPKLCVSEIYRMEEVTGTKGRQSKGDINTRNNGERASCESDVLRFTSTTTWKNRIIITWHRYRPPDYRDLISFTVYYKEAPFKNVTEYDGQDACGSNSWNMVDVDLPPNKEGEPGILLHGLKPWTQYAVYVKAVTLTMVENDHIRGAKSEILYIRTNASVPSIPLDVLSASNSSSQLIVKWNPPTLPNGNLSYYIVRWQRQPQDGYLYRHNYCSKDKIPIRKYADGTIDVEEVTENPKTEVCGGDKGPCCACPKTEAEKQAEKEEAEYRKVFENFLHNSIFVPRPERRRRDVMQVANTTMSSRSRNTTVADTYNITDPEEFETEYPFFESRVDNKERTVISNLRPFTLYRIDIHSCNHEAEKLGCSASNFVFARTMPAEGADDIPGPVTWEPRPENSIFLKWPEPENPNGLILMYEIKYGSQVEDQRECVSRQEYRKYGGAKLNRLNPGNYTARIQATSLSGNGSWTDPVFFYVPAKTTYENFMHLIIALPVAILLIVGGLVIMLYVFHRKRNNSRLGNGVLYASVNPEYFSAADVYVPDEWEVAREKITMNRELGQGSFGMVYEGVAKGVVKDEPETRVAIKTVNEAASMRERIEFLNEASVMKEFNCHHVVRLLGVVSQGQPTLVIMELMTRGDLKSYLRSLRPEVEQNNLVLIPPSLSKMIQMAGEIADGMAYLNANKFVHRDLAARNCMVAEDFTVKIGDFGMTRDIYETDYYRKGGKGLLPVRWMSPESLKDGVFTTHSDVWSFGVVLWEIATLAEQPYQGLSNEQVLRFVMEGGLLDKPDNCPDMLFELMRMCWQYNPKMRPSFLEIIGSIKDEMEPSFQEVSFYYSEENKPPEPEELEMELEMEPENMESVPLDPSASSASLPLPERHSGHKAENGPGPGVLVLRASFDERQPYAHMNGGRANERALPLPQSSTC
As to the kind of experiment: FACS on bEND.3 mouse brain endothelial cells; MFI of secondary Ab only 3.20.

The next experiment has as its target T5, human beta-synuclein (human, UniProt Q16143 1-134, limits assumed).
T5 construct: bought
The experiment is described as follows: ELISA, human beta-synuclein coated at 100 ng/ml.

The target in experiment [6] is T1, human alpha-synuclein aggregates …. As to the kind of experiment: SPR (BIAcore), antibody captured on Protein A chip, alpha-synuclein fibril (sample aSyn180330) as analyte, 1:1 binding fit, 25 C.
Procedure: as §1
The target of experiment [7] is T6, amyloid beta1-42 aggregates (UniProt P05067 672-713).
T6 construct: domain: amyloid beta1-42; aggregates prepared by Prof; Seung-jae Lee; also called amyloid beta1-42-derived aggregates
The experiment is described as follows: dot blot, monomer and fibril of each protein spotted in rising amounts, antibody as probe.
Procedure: (§3) The specific binding ability of the antibodies to the alpha-synuclein aggregate was analyzed by reacting with a blot.

The target in the next experiment is T7, Aβ42 (Monomer) (human, UniProt P05067).
T7 construct: recombinant, monomer (not aggregated); m20 is the aggregated form; also called amyloid beta1-42 monomer
The description is as above.

Experiment [8] addresses T1, human alpha-synuclein aggregates …. The experiment is described as follows: sandwich ELISA, antibody coated 0.04-400 nM, fibril aggregates 2000 ng/ml.
Procedure: (§4) Specifically, each antibody was diluted at 1/10 ratio of concentrations 0.04 to 400 nM and was coated on a 96-well plate, and then each well was treated with synuclein fibril aggregates were treated at 2000 ng/ml. After washing with 1×PBS, streptavidin conjugated with HRP and secondary antibody conjugate with biotin was treated and then reacted with TMB as a substrate. The absorbance was measured.
The target in experiment [9] is T4, mouse IGF1R on bEND.3 brain endothelial …. As to the kind of experiment: FACS on bEND.3 mouse brain endothelial cells.
In experiment [10] the target is T2, human IGF1R extracellular domain, …. As to the kind of experiment: ELISA on coated IGF1R, antibody titrated up to 400 nM; C of the 4-P fit, D 0.945; curve at baseline up to 16 nM, about 0.2 at 80 nM and 0.75 at 400 nM, no plateau in the data; the text says the single antibody did not bind.
Experiment [11] deals with T1, human alpha-synuclein aggregates …. The experiment is described as follows: ELISA, alpha-synuclein aggregates coated at 1 ug/ml, antibody titrated 5-fold from 400 nM, anti-human Fc-HRP; C of the 4-P fit.
Procedure: as §2
A further experiment has as its target T8, human gamma-synuclein (human, UniProt O76070 1-127, limits assumed).
T8 construct: bought
The experiment is described as follows: ELISA, human gamma-synuclein coated at 100 ng/ml.

The target of experiment [12] is T1, human alpha-synuclein aggregates …. The experiment is described as follows: sandwich ELISA, antibody coated in a dilution series, synuclein fibril aggregates at 2000 ng/ml; C of the 4-P fit, which paragraph 260 calls EC50.
Procedure: as §4
The next experiment concerns the target T9, human IGF1R on cells (human, UniProt P08069 31-1367).
T9 construct: also called endogenous IGF1R on the cell surface (MCF-7, JIMT-1, BT474, SKBR3); IGF1R library on OVCAR3 cells
As to the kind of experiment: FACS on MCF-7 cells, 10 ug/mL (2nd Ab only: 2.86).

The target in experiment [13] is T2, human IGF1R extracellular domain, …. As to the kind of experiment: ELISA, IGF1R coated, anti-human Fab-HRP.
Procedure: To this end, firstly, human, monkey, mouse and rat IGF1R antigens were diluted to 1 ug/ml, added to each well 100 ul, and reacted at 4° C. for 15 hours to be coated on the bottom of the plate. After removing the supernatant, 200 ul of PBS buffer containing 3% BSA was treated in each well to block non-specific binding. The anti-IGF1R antibodies were diluted by 5 times in PBSB (BSA 3% in PBS) at a maximum concentration of 400 nM, treated in each well, and reacted at 37° C. for 1 hour. Then, after washing with PBS buffer 5 times, the anti-human Fab HRP recognizing the Fab portion of the bound antibody was diluted 1:20000 was treated at 100 ul of each well, and reacted at 37° C. for 1 hour. The product was washed 5 times with PBS buffer and the color development was performed with TMB (Tetramethylbenzidine, Sigma, T0440) according to the manufacturer's method. […] When many samples are used in the ELISA analysis, the plates were divided into two.
The target is the same in experiment [14]. As to the kind of experiment: SPR (Biacore), human IGF1R ECD-His captured by anti-His antibody on CM4 chip, 1564-IgG as analyte, bivalent analyte fit, 25 C; lower panel.
Procedure: (§5) The anti-his antibody against the His tag bound to the human IGF1R ECD as an antigen was diluted to 20 μg/ml in acetate pH4.0 buffer, and then immobilized in the reference/analytic channel of the CM4 chip to 10,000 RU as a target RU according to the amine coupling method. During capture, PBS was used as a running buffer, and the flow rate was maintained at 30 μL/min. During association/dissociation, the flow rate was 40 μL/min, and PBS was used as the running buffer. The association/dissociation was 5 minutes and 20 minutes, respectively.
Experiment [15] shares this target. As to the kind of experiment: SPR (Biacore), human IGF1R ECD-His captured by anti-His antibody on CM4 chip, 1564-IgG as analyte, bivalent analyte fit, 25 C; upper panel.
Procedure: as §5
For experiment [16] the target is unchanged. As to the kind of experiment: SPR (Biacore T200), His-tagged human IGF1R ECD captured by anti-His antibody on CM4 chip, bivalent model; 1564 IgG.
Procedure: as §5

Usually EC50 stands for the concentration giving half of the maximal effect. Lower therefore signals higher potency in that assay. The term koff denotes the rate constant with which the complex falls apart. As a reminder, the kon is the second-order rate constant of association. Read a low kon as slower complex formation.

T5 sequence (Q16143 whole entry): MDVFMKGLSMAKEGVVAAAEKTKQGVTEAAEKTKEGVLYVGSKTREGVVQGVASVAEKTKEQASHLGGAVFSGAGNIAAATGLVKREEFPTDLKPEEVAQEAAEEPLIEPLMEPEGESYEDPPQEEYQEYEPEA
T8 sequence (O76070 whole entry): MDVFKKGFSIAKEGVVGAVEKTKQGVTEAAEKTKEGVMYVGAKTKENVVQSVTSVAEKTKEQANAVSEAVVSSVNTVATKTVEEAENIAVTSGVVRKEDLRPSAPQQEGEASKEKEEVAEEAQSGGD
Procedure for Aβ42 (Monomer): as §3
Procedure for human IGF1R on cells: After washing with PBS buffer containing 1% BSA, the secondary antibody bound with FITC to detect human antibodies was treated for 1 hour.
Source text for human beta-synuclein: (§6) For the positive control, RP-bound goat anti-rabbit was used as a detection antibody.
Source text for human gamma-synuclein: as §6

B1: chimeric 11F11 antibody (antibody, V domains shown)
VH: EVQLQESGGGLVQPGGSLRLSCATSGFTFSDFYMEWVRQPPGKRLEWIAASRNKANDYTTEYSASVKGRFIVSRDTSQSILYLQMNALRAEDTAIYYCARDAHGKPFAYWGQGTLVTVSA
VL: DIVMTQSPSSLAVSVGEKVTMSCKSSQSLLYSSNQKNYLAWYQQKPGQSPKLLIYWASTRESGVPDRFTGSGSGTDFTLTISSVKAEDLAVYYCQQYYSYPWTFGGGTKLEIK
notes: also called Ch11F11; ch11F11
Consider B1, for which, in [1], the Kd amounted to 0.0247 nM. Besides, the EC50 in experiment [2] came out at 1.27 nM; in [3], 201 nM; in [8], 12.5 nM; in experiment [10] it was 196 nM; in experiment [11], 33.8 nM. Moreover, the binding result (in the experiment with Tau protein aggregates; with human beta-synuclein; in [7]; with Aβ42 (Monomer); in experiment [9]; with human gamma-synuclein) was “no binding” in each case. In addition, the koff in [4] turned out to be 8.88e-05 s⁻¹; in experiment [6] it was 0.000563 s⁻¹. In addition, the kon in experiment [4] was 193000 M⁻¹ s⁻¹; in experiment [6] it was 609000 M⁻¹ s⁻¹. For the same molecule, the MFI in [5] was 3.26.

B2: hu11F11(ver.2) (antibody, human IgG1, kappa, V domains shown)
VH: EVQLVESGGGLVQPGGSLRLSCATSGFTFSDFYMEWVRQPPGKRLEWIAASRNKANDYTTEYSASVKGRFTVSRDDSKSSLYLQMNSLRAEDTAIYYCARDAHGKPFAYWGQGTTVTVSS
VL: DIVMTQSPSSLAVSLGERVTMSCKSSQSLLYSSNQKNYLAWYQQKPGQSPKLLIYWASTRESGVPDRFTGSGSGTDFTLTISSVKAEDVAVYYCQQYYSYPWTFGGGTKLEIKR
notes: humanized IgG1; also called Hu11F11-VH-v2 + Hu11F11-VLv3 4c
For the molecule B2, in [12], a half-maximal response (EC50) required 15.1 nM. This molecule also gave a Kd in experiment [1] of 0.0596 nM. For the same molecule, in [6], the off-rate constant (koff) is 0.000173 s⁻¹ and the kon amounted to 1.19e+06 M⁻¹ s⁻¹. In addition, the “GeoMean, Internalization at 37° C.” value with human IGF1R on cells was determined as 3.18.

B3: 1564 IgG (antibody, V domains shown)
VH: EVQLLESGGGLVQPGGSLRLSCAASGFTFSSYDMSWVRQAPGKGLEWVSAISYDNGNTYYADSVKGRFTISRDNSKNTLYLQMNSLRAEDTAVYYCAKGVLTTLMNWFDYWGQGTLVTVSS
VL: QSVLTQPPSASGTPGQRVTISCTGSSSNIGSNDVSWYQQLPGTAPKLLIYANSNRPSGVSDRFSGSKSGTSASLAISGLRSEDEADYYCGAWDDSLNGYVFGGGTKLTVLR
In experiment [13], B3 displayed an EC50 of 0.0823 nM. In experiment [14], the koff is 2.53e-06 s⁻¹. In experiment [15], the koff came to 2.41e-06 s⁻¹ and the on-rate constant (kon) worked out at 902 M⁻¹ s⁻¹. Also, in experiment [16], the Kd came to 2.53 nM. This molecule came in with an MFI in experiment [5] of 7.55.
